According to the supplement of paper PMC7877785:
± gives the uncertainty stated by the source.

Assay: self-splicing fitness, log relative to wild type (ln ratio); higher = more splicing; Tetrahymena group I intron in knt gene, E. coli kanamycin selection, DiMSum; sequences stand for … in CUCUCU…GGAGGGAAAAGUUAUCAGGCAUGCACCUGGUAGCUAGUCUUUAAACCAAUAGAUUGCAUCGGUUUAAAAGGCAAGACCGUCAAAUUGCGGGAAAGGGGUCAACAGCCGUUCAGUACCAAGUCUCAGGGGAAACUUUGAGAUGGCCUUGCAAAGGGUAUGGUAAUAAGCUGACGGACAUGGUCCUAACCACGCAGCCAAGUCCUAAGUCAACAGAUCUUCUGUUGAUAUGGAUGCAGUUCACAGACUAAAUGUCGGUCGGGGAAGAUGUAUUCUUCUCAUAAGAUAUAGUCGGACCUCUCCUUAAUGGGAGCUAGCGGAUGAAGUGAUGCAACACUGGAGCCGCUGGGAACUAAUUUGUAUGCGAAAGUAUAUUGAUUAGUUUUGGAGUACUCGUGGUCG
How it was run: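 The eight P1ex-region nucleotides of an intron in the knt kanamycin-resistance gene on pET-22b(+) were all randomised and the library put into E. coli BL21(DE3). Six replicate transformations were grown overnight at 37°C or 30°C on LB agar with or without 25 μg/mL kanamycin, together with 100 μg/mL carbenicillin, 50 μM IPTG and 0.2% rhamnose. Colonies were pooled and amplicon-sequenced on an Illumina HiSeq 2500. Fitness from DiMSum is the error-weighted combination of wild-type-normalised replicate fold changes, kanamycin over none.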

Sequence	self-splicing fitness (ln) (30 °C)	self-splicing fitness (ln) (37 °C)
AGGAAGCAAUAUUACGCGCA	-0.555 ± 0.13	0.268 ± 0.16
AGGAAGCAAUAUUACGCUAC	-3.48 ± 0.41	-2.99 ± 0.47
AGGAAGCAAUAUUACGCUCG	-0.643 ± 0.16	-0.865 ± 0.21
AGGAAGCAAUAUUACGCUGU	-2.29 ± 0.29	–
AGGAAGCAAUAUUACGGACA	-0.516 ± 0.12	-0.384 ± 0.15
AGGAAGCAAUAUUACGGACC	-0.483 ± 0.27	0.238 ± 0.27
AGGAAGCAAUAUUACGGCAA	-1.52 ± 0.096	-0.574 ± 0.12
AGGAAGCAAUAUUACGGCAU	-1.28 ± 0.13	-0.506 ± 0.15
AGGAAGCAAUAUUACGGGAG	-2.22 ± 0.19	-2.95 ± 0.37
AGGAAGCAAUAUUACGGGCC	-3.5 ± 0.42	-0.18 ± 0.2
AGGAAGCAAUAUUACGGGGC	-3.49 ± 0.26	-2.49 ± 0.24
AGGAAGCAAUAUUACGGGUG	-2.14 ± 0.091	-1.98 ± 0.11
AGGAAGCAAUAUUACGGUAG	-3.37 ± 0.36	-1.6 ± 0.31
AGGAAGCAAUAUUACGUAUC	-3.45 ± 0.22	-2.88 ± 0.15
AGGAAGCAAUAUUACGUCAC	-3.41 ± 0.2	-3.65 ± 0.3
AGGAAGCAAUAUUACGUCAG	-2.97 ± 0.25	-2.41 ± 0.33
AGGAAGCAAUAUUACGUCAU	-3.32 ± 0.16	-0.295 ± 0.12
AGGAAGCAAUAUUACGUCCA	-0.764 ± 0.14	-0.0963 ± 0.22
AGGAAGCAAUAUUACGUUGC	-3.23 ± 0.37	-1.29 ± 0.41
AGGCAGCAAUAUUACGAACA	-1.45 ± 0.11	-0.167 ± 0.14
AGGCAGCAAUAUUACGAAUC	-2.29 ± 0.29	-2.07 ± 0.24
AGGCAGCAAUAUUACGAGCA	-1.96 ± 0.12	-0.225 ± 0.12
AGGCAGCAAUAUUACGAUAC	-2.06 ± 0.27	-1.42 ± 0.26
AGGCAGCAAUAUUACGAUCC	-0.222 ± 0.051	-0.211 ± 0.061
AGGCAGCAAUAUUACGCACA	-0.332 ± 0.092	0.275 ± 0.11

Sequence	self-splicing fitness (ln) (30 °C)	self-splicing fitness (ln) (37 °C)
AGGCAGCAAUAUUACGCCCG	-1.26 ± 0.12	-0.431 ± 0.2
AGGCAGCAAUAUUACGCGGA	-2.08 ± 0.14	-0.664 ± 0.1
AGGCAGCAAUAUUACGCUAC	-2.44 ± 0.23	–
AGGCAGCAAUAUUACGCUGC	–	-2.5 ± 0.38
AGGCAGCAAUAUUACGCUUC	–	-1.31 ± 0.28
AGGCAGCAAUAUUACGCUUU	-3.17 ± 0.35	-1.41 ± 0.18
AGGCAGCAAUAUUACGGAAA	-2.91 ± 0.48	-2.14 ± 0.24
AGGCAGCAAUAUUACGGACG	-0.899 ± 0.067	-0.218 ± 0.095
AGGCAGCAAUAUUACGGCCG	-1.12 ± 0.13	-0.985 ± 0.17
AGGCAGCAAUAUUACGGGAG	-4.08 ± 0.22	-1.53 ± 0.12
AGGCAGCAAUAUUACGGUGC	-3.54 ± 0.16	-2.89 ± 0.2
AGGCAGCAAUAUUACGUACA	-0.585 ± 0.071	-0.742 ± 0.093
AGGCAGCAAUAUUACGUACC	-0.0574 ± 0.12	0.0331 ± 0.15
AGGCAGCAAUAUUACGUCAA	-1.25 ± 0.098	-0.465 ± 0.095
AGGCAGCAAUAUUACGUCCG	-1.16 ± 0.12	-0.519 ± 0.13
AGGCAGCAAUAUUACGUGAC	-3.86 ± 0.21	-1.84 ± 0.14
AGGCAGCAAUAUUACGUGUC	-3.18 ± 0.15	-2.58 ± 0.19
AGGCAGCAAUAUUACGUUGU	-2.88 ± 0.15	-2.52 ± 0.21
AGGCAGCAAUAUUACGUUUG	-3.43 ± 0.18	-1.66 ± 0.14
AGGGAGCAAUAUUACGACGC	–	-1.54 ± 0.45
AGGGAGCAAUAUUACGAGGA	-3.08 ± 0.33	–
AGGGAGCAAUAUUACGAGUG	-3.39 ± 0.36	-2.37 ± 0.3
AGGGAGCAAUAUUACGAUAG	-2.56 ± 0.23	-2.66 ± 0.3
AGGGAGCAAUAUUACGAUCU	-2.71 ± 0.23	-1.77 ± 0.17
AGGGAGCAAUAUUACGCCCA	–	-0.897 ± 0.34

Sequence	self-splicing fitness (ln) (30 °C)	self-splicing fitness (ln) (37 °C)
AGGGAGCAAUAUUACGCUAU	-3.63 ± 0.43	-1.85 ± 0.49
AGGGAGCAAUAUUACGGAUG	-4 ± 0.33	-2.6 ± 0.31
AGGGAGCAAUAUUACGGGAU	-3.19 ± 0.46	-1.48 ± 0.28
AGGGAGCAAUAUUACGGGGC	–	-0.893 ± 0.36
AGGGAGCAAUAUUACGGGUU	-3.84 ± 0.25	-3.17 ± 0.35
AGGGAGCAAUAUUACGGUAG	-4 ± 0.33	–
AGGGAGCAAUAUUACGGUUU	-3.83 ± 0.24	-2.39 ± 0.26
AGGGAGCAAUAUUACGUAGA	-3.05 ± 0.19	-2.22 ± 0.48
AGGGAGCAAUAUUACGUGCA	-4.52 ± 0.34	-2.5 ± 0.24
AGGGAGCAAUAUUACGUGCC	-2.79 ± 0.46	–
AGGGAGCAAUAUUACGUGGA	-1.45 ± 0.14	-2.81 ± 0.26
AGGUAGCAAUAUUACGAACA	-0.682 ± 0.019	-0.342 ± 0.036
AGGUAGCAAUAUUACGAACG	-0.798 ± 0.016	-0.207 ± 0.035
AGGUAGCAAUAUUACGACGC	-0.0643 ± 0.017	0.0178 ± 0.035
AGGUAGCAAUAUUACGACGG	-2.04 ± 0.02	-1.31 ± 0.037
AGGUAGCAAUAUUACGAGGG	-3.972 ± 0.031	-3.2 ± 0.042
AGGUAGCAAUAUUACGAUCA	-0.205 ± 0.014	-0.121 ± 0.033
AGGUAGCAAUAUUACGCACU	-1.32 ± 0.017	-0.862 ± 0.035
AGGUAGCAAUAUUACGCAGG	-3.433 ± 0.022	-1.88 ± 0.035
AGGUAGCAAUAUUACGCCAU	-1.89 ± 0.021	-0.939 ± 0.036
AGGUAGCAAUAUUACGGAAG	-3.612 ± 0.031	-2.5 ± 0.04
AGGUAGCAAUAUUACGGCUA	-1.66 ± 0.022	-1.14 ± 0.037
AGGUAGCAAUAUUACGGUCU	-0.498 ± 0.013	-0.107 ± 0.033
AGGUAGCAAUAUUACGUAUA	-2.6 ± 0.023	-1.45 ± 0.036
AGGUAGCAAUAUUACGUCAA	-2.28 ± 0.023	-1.6 ± 0.036

Sequence	self-splicing fitness (ln) (30 °C)	self-splicing fitness (ln) (37 °C)
AGGUAGCAAUAUUACGUUUC	-3.528 ± 0.026	-2.18 ± 0.039
AGUAAGCAAUAUUACGAACU	-2.43 ± 0.19	-0.813 ± 0.15
AGUAAGCAAUAUUACGAAGC	-3.12 ± 0.27	-3.5 ± 0.37
AGUAAGCAAUAUUACGAAUG	-1.15 ± 0.28	–
AGUAAGCAAUAUUACGAGUU	-2.53 ± 0.097	-0.877 ± 0.1
AGUAAGCAAUAUUACGCCCC	0.393 ± 0.41	-1.15 ± 0.36
AGUAAGCAAUAUUACGCGAA	-2.57 ± 0.12	-1.42 ± 0.19
AGUAAGCAAUAUUACGCGCG	-1.05 ± 0.21	-0.403 ± 0.21
AGUAAGCAAUAUUACGCGGA	-3.49 ± 0.32	-0.326 ± 0.11
AGUAAGCAAUAUUACGCUCC	-3.21 ± 0.28	-1.18 ± 0.2
AGUAAGCAAUAUUACGGAGU	-2.22 ± 0.18	-2.37 ± 0.39
AGUAAGCAAUAUUACGGCAA	-0.915 ± 0.11	-0.179 ± 0.096
AGUAAGCAAUAUUACGGCGG	-2.43 ± 0.16	-1.66 ± 0.19
AGUAAGCAAUAUUACGGCUG	-0.953 ± 0.11	-0.941 ± 0.12
AGUAAGCAAUAUUACGGGCG	-0.68 ± 0.08	0.152 ± 0.12
AGUAAGCAAUAUUACGUAGA	-3.23 ± 0.19	-1.78 ± 0.16
AGUAAGCAAUAUUACGUAGU	-3.22 ± 0.14	-2.53 ± 0.16
AGUAAGCAAUAUUACGUCUA	-0.96 ± 0.16	-0.0188 ± 0.15
AGUAAGCAAUAUUACGUGGC	-2.68 ± 0.16	-2.54 ± 0.22
AGUAAGCAAUAUUACGUGUU	-3.49 ± 0.13	-1.99 ± 0.18
AGUAAGCAAUAUUACGUUAU	-3.25 ± 0.23	-2.18 ± 0.18
AGUCAGCAAUAUUACGACCA	-0.2 ± 0.12	0.345 ± 0.14
AGUCAGCAAUAUUACGACGG	-0.725 ± 0.067	-0.096 ± 0.1
